The values below come from publication PMC7202955 (Current biology : CB, 2020).

This series deals with the molecule itself. The experiment in a line: cross-linking.

B1: β3 TMD-tail (construct of the cross-linking experiment, Figure S5) (domain or fragment, UniProt P05106 711-788, looked up)
chain: PECPKGPDILVVLLSVMGAILLIGLAALLIWKLLITIHDRKEFAKFEEERARAKWDTANNPLYKEATSTFTNITYRGT
A word on the stoichiometry N: it is the number of molecules, sites or subunits per partner or assembly. As for B1, the “stoichiometry N” value turned out to be 2.
